The sequences below were run on Escherichia coli TOP10 (assay: shrunken log2 fold change of peptide-encoding DNA abundance (4.5 h post-induction vs induction); higher = less antimicrobial activity (less host growth inhibition)). Details: time post-induction: 4.5 h; library: site-saturation at positions 5, 18, 19, 20.
In the case of RRIRHRPPRLPRPRPRPTCCPRP, the “shrunken log2 fold change” value is reported as -0.125.
For RRIRMRPPRLPRPRPRPAMHPRP, the “shrunken log2 fold change” value was 2.86.
In the case of RRIRLRPPRLPRPRPRPVYTPRP, the “shrunken log2 fold change” value is reported as -0.0286.
In the case of RRIRMRPPRLPRPRPRPTGGPRP, the “shrunken log2 fold change” value is reported as 0.454.
In the case of RRIRPRPPRLPRPRPRPVIDPRP, the “shrunken log2 fold change” value is reported as -0.0426.
RRIRDRPPRLPRPRPRPEVEPRP was tested, and the “shrunken log2 fold change” value was 1.68.
In the case of RRIRMRPPRLPRPRPRPLMRPRP, the “shrunken log2 fold change” value is reported as 1.16.
RRIRARPPRLPRPRPRPLSPPRP was tested, and the “shrunken log2 fold change” value was 0.0788.
RRIRNRPPRLPRPRPRPHTNPRP was tested, and the “shrunken log2 fold change” value was 0.0886.
With RRIRCRPPRLPRPRPRPHYEPRP the “shrunken log2 fold change” value was -0.442.
With RRIRARPPRLPRPRPRPIWMPRP the “shrunken log2 fold change” value was -0.00518.
RRIRPRPPRLPRPRPRPYADPRP was tested, and the “shrunken log2 fold change” value was 0.0774.
With RRIRRRPPRLPRPRPRPHVGPRP the “shrunken log2 fold change” value was 0.0734.
With RRIRWRPPRLPRPRPRPQRAPRP the “shrunken log2 fold change” value was 0.66.
With RRIRSRPPRLPRPRPRPQNPPRP the “shrunken log2 fold change” value was -0.296.
RRIRGRPPRLPRPRPRPTHGPRP was tested, and the “shrunken log2 fold change” value was 0.487.
With RRIRNRPPRLPRPRPRPTFPPRP the “shrunken log2 fold change” value was -0.112.
For RRIRCRPPRLPRPRPRPVIHPRP, the “shrunken log2 fold change” value was -0.567.
With RRIRMRPPRLPRPRPRPSMAPRP the “shrunken log2 fold change” value was 0.925.
RRIRSRPPRLPRPRPRPTTAPRP was tested, and the “shrunken log2 fold change” value was 0.155.
With RRIRRRPPRLPRPRPRPCDLPRP the “shrunken log2 fold change” value was 0.0275.
RRIRFRPPRLPRPRPRPMPKPRP was tested, and the “shrunken log2 fold change” value was 0.856.
RRIRPRPPRLPRPRPRPQKYPRP was tested, and the “shrunken log2 fold change” value was -0.257.
RRIRPRPPRLPRPRPRPDFAPRP was tested, and the “shrunken log2 fold change” value was 0.0996.
With RRIRPRPPRLPRPRPRPPDMPRP the “shrunken log2 fold change” value was 0.507.
In the case of RRIRERPPRLPRPRPRPYVLPRP, the “shrunken log2 fold change” value is reported as -0.125.
In the case of RRIRARPPRLPRPRPRPICTPRP, the “shrunken log2 fold change” value is reported as 0.197.
With RRIRTRPPRLPRPRPRPPSNPRP the “shrunken log2 fold change” value was -0.244.
In the case of RRIRMRPPRLPRPRPRPRWCPRP, the “shrunken log2 fold change” value is reported as 0.273.
In the case of RRIRVRPPRLPRPRPRPNDFPRP, the “shrunken log2 fold change” value is reported as -0.0485.
With RRIRQRPPRLPRPRPRPQDWPRP the “shrunken log2 fold change” value was -0.146.
RRIRNRPPRLPRPRPRPFCCPRP was tested, and the “shrunken log2 fold change” value was -0.257.
RRIRWRPPRLPRPRPRPYNEPRP was tested, and the “shrunken log2 fold change” value was -0.13.
For RRIRGRPPRLPRPRPRPNSMPRP, the “shrunken log2 fold change” value was 0.0537.
For RRIRLRPPRLPRPRPRPHISPRP, the “shrunken log2 fold change” value was -0.272.
RRIRHRPPRLPRPRPRPNDQPRP was tested, and the “shrunken log2 fold change” value was -0.169.
RRIRMRPPRLPRPRPRPTGIPRP was tested, and the “shrunken log2 fold change” value was -0.149.
For RRIRERPPRLPRPRPRPDCRPRP, the “shrunken log2 fold change” value was 0.0169.
With RRIRVRPPRLPRPRPRPDWHPRP the “shrunken log2 fold change” value was -0.0256.
For RRIRCRPPRLPRPRPRPKCCPRP, the “shrunken log2 fold change” value was 0.0554.
In the case of RRIRRRPPRLPRPRPRPFTSPRP, the “shrunken log2 fold change” value is reported as -0.0327.
For RRIRDRPPRLPRPRPRPPYVPRP, the “shrunken log2 fold change” value was -0.0635.
With RRIRGRPPRLPRPRPRPWQNPRP the “shrunken log2 fold change” value was 0.041.
For RRIRIRPPRLPRPRPRPCAYPRP, the “shrunken log2 fold change” value was -0.0396.
RRIRRRPPRLPRPRPRPWCIPRP was tested, and the “shrunken log2 fold change” value was -0.366.
In the case of RRIRKRPPRLPRPRPRPPFLPRP, the “shrunken log2 fold change” value is reported as -0.0158.
With RRIRVRPPRLPRPRPRPLVSPRP the “shrunken log2 fold change” value was 0.339.
With RRIRKRPPRLPRPRPRPQIPPRP the “shrunken log2 fold change” value was -0.0346.
In the case of RRIRYRPPRLPRPRPRPWVFPRP, the “shrunken log2 fold change” value is reported as -0.0309.
With RRIRVRPPRLPRPRPRPKRFPRP the “shrunken log2 fold change” value was -0.0543.
With RRIRHRPPRLPRPRPRPNVMPRP the “shrunken log2 fold change” value was 0.0213.
RRIRERPPRLPRPRPRPQNGPRP was tested, and the “shrunken log2 fold change” value was -0.0634.
With RRIRSRPPRLPRPRPRPLLMPRP the “shrunken log2 fold change” value was 0.128.
With RRIRGRPPRLPRPRPRPLGVPRP the “shrunken log2 fold change” value was 0.835.
RRIRGRPPRLPRPRPRPRATPRP was tested, and the “shrunken log2 fold change” value was 1.72.
For RRIRFRPPRLPRPRPRPFGKPRP, the “shrunken log2 fold change” value was -0.00111.
With RRIRPRPPRLPRPRPRPCYDPRP the “shrunken log2 fold change” value was -0.165.
For RRIRKRPPRLPRPRPRPRMHPRP, the “shrunken log2 fold change” value was 0.557.
For RRIRFRPPRLPRPRPRPADFPRP, the “shrunken log2 fold change” value was -0.09.
In the case of RRIRNRPPRLPRPRPRPEFFPRP, the “shrunken log2 fold change” value is reported as -0.064.
For RRIRERPPRLPRPRPRPNMPPRP, the “shrunken log2 fold change” value was -0.706.
RRIRNRPPRLPRPRPRPQNHPRP was tested, and the “shrunken log2 fold change” value was -0.685.
With RRIRRRPPRLPRPRPRPSNCPRP the “shrunken log2 fold change” value was -0.252.
In the case of RRIRWRPPRLPRPRPRPQTFPRP, the “shrunken log2 fold change” value is reported as -0.293.
With RRIRFRPPRLPRPRPRPSPCPRP the “shrunken log2 fold change” value was -0.508.
For RRIRRRPPRLPRPRPRPHGLPRP, the “shrunken log2 fold change” value was 0.217.
In the case of RRIRVRPPRLPRPRPRPQIMPRP, the “shrunken log2 fold change” value is reported as -0.745.
In the case of RRIRGRPPRLPRPRPRPVLPPRP, the “shrunken log2 fold change” value is reported as 0.383.
With RRIRLRPPRLPRPRPRPCCKPRP the “shrunken log2 fold change” value was -0.102.
With RRIRCRPPRLPRPRPRPAMVPRP the “shrunken log2 fold change” value was 0.204.
RRIRDRPPRLPRPRPRPPDVPRP was tested, and the “shrunken log2 fold change” value was 0.302.
With RRIRCRPPRLPRPRPRPGVHPRP the “shrunken log2 fold change” value was -0.108.
In the case of RRIRHRPPRLPRPRPRPVWQPRP, the “shrunken log2 fold change” value is reported as 0.0177.
For RRIRMRPPRLPRPRPRPKLWPRP, the “shrunken log2 fold change” value was 1.41.
With RRIRQRPPRLPRPRPRPAAEPRP the “shrunken log2 fold change” value was 0.19.
RRIRFRPPRLPRPRPRPTRLPRP was tested, and the “shrunken log2 fold change” value was 0.08.
With RRIRVRPPRLPRPRPRPESGPRP the “shrunken log2 fold change” value was 0.177.
In the case of RRIRFRPPRLPRPRPRPSCHPRP, the “shrunken log2 fold change” value is reported as -0.495.
In the case of RRIRIRPPRLPRPRPRPQELPRP, the “shrunken log2 fold change” value is reported as -0.169.
RRIRHRPPRLPRPRPRPPWQPRP was tested, and the “shrunken log2 fold change” value was -0.0158.
For RRIRLRPPRLPRPRPRPYGVPRP, the “shrunken log2 fold change” value was -0.107.
With RRIRWRPPRLPRPRPRPLMLPRP the “shrunken log2 fold change” value was -0.0143.
RRIRSRPPRLPRPRPRPDKPPRP was tested, and the “shrunken log2 fold change” value was -0.266.
For RRIRGRPPRLPRPRPRPHLIPRP, the “shrunken log2 fold change” value was 0.205.
With RRIRTRPPRLPRPRPRPHWGPRP the “shrunken log2 fold change” value was 0.229.
In the case of RRIRNRPPRLPRPRPRPYLKPRP, the “shrunken log2 fold change” value is reported as -0.151.
In the case of RRIRGRPPRLPRPRPRPPLNPRP, the “shrunken log2 fold change” value is reported as 0.789.
With RRIRPRPPRLPRPRPRPIGRPRP the “shrunken log2 fold change” value was -0.0114.
For RRIRSRPPRLPRPRPRPEMYPRP, the “shrunken log2 fold change” value was -0.0223.
RRIRVRPPRLPRPRPRPNSDPRP was tested, and the “shrunken log2 fold change” value was -0.429.
For RRIRSRPPRLPRPRPRPGLDPRP, the “shrunken log2 fold change” value was 0.127.
RRIRTRPPRLPRPRPRPDCSPRP was tested, and the “shrunken log2 fold change” value was -0.239.
RRIRWRPPRLPRPRPRPEGEPRP was tested, and the “shrunken log2 fold change” value was 1.27.
RRIRMRPPRLPRPRPRPYQYPRP was tested, and the “shrunken log2 fold change” value was -0.0219.
RRIRQRPPRLPRPRPRPSDKPRP was tested, and the “shrunken log2 fold change” value was -0.341.
RRIRVRPPRLPRPRPRPWFEPRP was tested, and the “shrunken log2 fold change” value was -0.313.
For RRIRFRPPRLPRPRPRPKTNPRP, the “shrunken log2 fold change” value was 0.0585.
For RRIRHRPPRLPRPRPRPNFEPRP, the “shrunken log2 fold change” value was 0.00825.
For RRIRLRPPRLPRPRPRPFKRPRP, the “shrunken log2 fold change” value was -0.09.
With RRIRQRPPRLPRPRPRPVKDPRP the “shrunken log2 fold change” value was -0.03.
With RRIRLRPPRLPRPRPRPEAIPRP the “shrunken log2 fold change” value was 0.0246.
RRIRHRPPRLPRPRPRPAGMPRP was tested, and the “shrunken log2 fold change” value was -0.411.
With RRIRWRPPRLPRPRPRPGRGPRP the “shrunken log2 fold change” value was 0.643.
For RRIRFRPPRLPRPRPRPKLWPRP, the “shrunken log2 fold change” value was 0.287.
RRIRARPPRLPRPRPRPAFNPRP was tested, and the “shrunken log2 fold change” value was 0.273.
With RRIRVRPPRLPRPRPRPAKQPRP the “shrunken log2 fold change” value was -0.0993.
RRIRARPPRLPRPRPRPLKDPRP was tested, and the “shrunken log2 fold change” value was 0.0838.
With RRIRRRPPRLPRPRPRPQLNPRP the “shrunken log2 fold change” value was 0.159.
With RRIRIRPPRLPRPRPRPAALPRP the “shrunken log2 fold change” value was -0.134.
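Note: peptides expressed intracellularly from a pBAD plasmid library in pooled LB shake-flask culture, induced with 0.3% L-arabinose, DNA abundance read by NGS, three biological replicates, DESeq2 with apeglm shrinkage.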
